The text below walks through data of patent US20240150440A1 (LUMEN BIOSCIENCE, published 2024).

Assay [1] deals with SARS-CoV-2 spike protein on pseudotyped lentivirus (Wuhan Reference Pseudovirus) (SARS-CoV-2, UniProt P0DTC2 14-1273). Nature of the assay: cell-based or functional assay.
Assay [2] addresses T1, SARS-CoV-2 Alpha Variant RBD (SARS-CoV-2 Alpha variant).
T1 construct: domain: RBD; coated on ELISA plates
The experiment in a line: ELISA, RBD coated.

Assay [3] has as its target T2, SARS-CoV-2 Beta Variant RBD (SARS-CoV-2 Beta variant).
T2 construct: domain: RBD; coated on ELISA plates
The experiment in a line: ELISA, RBD coated. (An ELISA detects its analyte on a solid surface through an enzyme-linked reagent.)

In assay [4] the target is T3, SARS-CoV-2 Gamma Variant RBD (SARS-CoV-2 Gamma variant).
T3 construct: domain: RBD; coated on ELISA plates
Nature of the assay: ELISA, RBD coated.

B1: PP910 MBP-5HVZ-S2b-C10-H6 (VHH)
VHH: QVQLVESGGGLVQPGGSLRLSCAASGSAFSLNYMAWFRQAPGKQREGVAIIGSGGSSDYADSVKGRFTISRDNAKNTVYLQMNSLKPEDTAVYYCAAQPNGSPDDFDYWGQGTQVTVSS
notes: Form: Dimer
Turning to B1, the “infectivity % under 10 ug/mL VHH treatment” value (shortened to “infectivity %”) in assay [1] turned out to be 65.1%.

B2: PP916 MBP-5HVZ-S3b-A8-H6 (VHH)
VHH: QVQLVESGGGLVQPGGSLRLSCAASGSIISRVKVHWFRQAPGKSREWVAGIDSGTASYYSDSVKGRFTISRDNAKNTVYLQMNSLKPEDTAVYYCAAENRGYGVDWGQGTQVTVSS
notes: Form: Dimer
For B2, the EC50 (as a rule, the concentration needed to bring the measured effect to its halfway point) in assay [2] came out at 2.04 nM; in assay [3], 66.3 nM; in assay [4], 42.9 nM.

B3: PP901 MBP-5HVZ-R1e-B2-H6 (VHH)
VHH: QVQLVESGGGLVQPGGSLRLSCAASGQITAENYMHWYRQAPGKQREWVAAITTGGSTLYADSVKGRFTISRDNAKNTVYLQMNSLKPEDTAVYYCNADRSYFPDYWGQGTQVTVSS
notes: Form: Dimer
As to B3, in assay [1], the “infectivity %” value amounted to 72.1%.

B4: PP928 MBP-5HVZ-R1i-E7-H6 (VHH)
VHH: QVQLVESGGGLVQPGGSLRLSCAASGTEYDISAAHWYRQAPGKQREWVAGVTSDNSTFYADSVKGRFTISRDNAKNTVYLQMNSLKPEDTAVYYCTATVKTSQYRYWGQGTQVTVSS
Turning to B4, in assay [1], the “infectivity %” value turned out to be 78.5%.

B5: PP888 MBP-S1b-E11-H6 (VHH)
VHH: QVQLVESGGGLVQPGGSLRLSCAASGSYASIASMHWFRQAPGKEREFVAGVTSGGSTNYGDSVKGRFTISRDNAKNTVYLQMNSLKPEDTAVYYCNALAGANYESQWEEYNYWGQGTQVTVSS
notes: Form: Monomer
For the molecule B5, the “infectivity %” value in assay [1] amounted to 80%.

B6: PP907 MBP-5HVZ-S1b-E11-H6 (VHH)
VHH: B5 VHH
notes: Form: Dimer
As to B6, the EC50 stood at 3.7 nM in assay [2], 263 nM in assay [3] and 120 nM in assay [4]. Further, the “infectivity %” value in assay [1] is 76.3%.

B7: PP1108 MBP-5HVZ-PAPA-RN-23-H6 (VHH)
VHH: QVQLVESGGGLVQPGGSLRLSCAASGGEKSISAAHWYRQAPGKEREFVAAITAASTTSYADSVKGRFTISRDNAKNTVYLQMNSLKPEDTAVYYCTAVLYDSYDYWGQGTQVTVSS
notes: Form: Dimer
Consider B7, for which the half-maximal effective concentration (EC50) in assay [2] is 1.89 nM; in assay [3], 121 nM; in assay [4] it was 57.1 nM. Moreover, the “infectivity %” value in assay [1] amounted to 93.1%.

B8: PP1141 MBP-4B0F-PAPA-R5d-D4-H6 (VHH)
VHH: QVQLVESGGGLVQPGGSLRLSCAASGSDFTINAMHWFRQAPGKQREFVATITSTSSTAYRDSVKGRFTISRDNAKNTVYLQMNSLKPEDTAVYYCAAFAVRDADTAGWTARDYWGQGTQVTVSS
notes: Form: Heptamer
As to B8, the “infectivity %” value in assay [1] stood at 73.1%.

B9: PP883 MBP-R1e-D4-H6 (VHH)
VHH: QVQLVESGGGLVQPGGSLRLSCAASGSIREINAMHWVRQAPGKGRELVASIDSGSLDYYADSVKGRFTISRDNAKNTVYLQMNSLKPEDTAVYYCAASRSGDYRYWGQGTQVTVSS
notes: Form: Monomer
Consider B9, for which, in assay [1], the “infectivity %” value worked out at 94.3%.

B10: PP902 MBP-5HVZ-R1e-D4-H6 (VHH)
VHH: B9 VHH
notes: Form: Dimer
For the molecule B10, the EC50 was found to be 123 nM in assay [2] and 451 nM in assay [4]. Moreover, the “infectivity %” value in assay [1] stood at 72.4%.

B11: PP1115 MBP-5HVZ-PAPA-RN-31-H6 (VHH)
VHH: QVQLVESGGGLVQPGGSLRLSCAASGSTGSDYAMHWFRQAPGKDREWVAGISSYGSDSYGDSVKGRFTISRDNAKNTVYLQMNSLKPEDTAVYYCAALQASAGAGYYYDYWGQGTQVTVSS
notes: Form: Dimer
Take B11: the figures for the EC50 in assay [2], in assay [3] and in assay [4] were 6.74 nM, 857 nM and 162 nM, respectively. Further, in assay [1], the “infectivity %” value turned out to be 86.9%.

B12: PP884 MBP-R1i-A11-H6 (VHH)
VHH: QVQLVESGGGLVQPGGSLRLSCAASGSILQINAIHWFRQAPGKQREEVAAITSGGSTGYADSVKGRFTISRDNAKNTVYLQMNSLKPEDTAVYYCAATSTRGGLDSDYWGQGTQVTVSS
notes: Form: Monomer
As to B12, in assay [1], the “infectivity %” value worked out at 91.3%.

B13: PP881 MBP-R5a-F2-H6 (VHH)
VHH: QVQLVESGGGLVQPGGSLRLSCAASGSISSIEAMSWFRQAPGKQREGVATMASGGDTSYADSVKGRFTISRDNAKNTVYLQMNSLKPEDTAVYYCAAQTYRPDTWGRYTFWGQGTQVTVSS
notes: Form: Monomer
B13: the “infectivity %” value in assay [1] was determined as 83.2%.

B14: PP913 MBP-5HVZ-S3a-C5-H6 (VHH)
VHH: QVQLVESGGGLVQPGGSLRLSCAASGSIKNTNAMHWFRQAPGKDREWVAGITSGGNSNYGDSVKGRFTISRDNAKNTVYLQMNSLKPEDTAVYYCAAFGYRYDQDYTYDYWGQGTQVTVSS
notes: Form: Dimer
For the molecule B14, the EC50 in assay [2] was 1.33 nM; in assay [3] it was 114 nM; in assay [4], 61.1 nM.

B15: PP914 MBP-5HVZ-S3a-H1-H6 (VHH)
VHH: QVQLVESGGGLVQPGGSLRLSCAASGGIYSPYSMHWFRQAPGKAREWVAGIVGGGGTTYSDSVKGRFTISRDNAKNTVYLQMNSLKPEDTAVYYCNANYQEYDEYDYWGQGTQVTVSS
notes: Form: Dimer
In the case of B15, the figures for the concentration giving a half-maximal response (EC50) in assay [2], in assay [3] and in assay [4] were 2.94 nM, 19.4 nM and 10.5 nM, respectively.

B16: PP887 MBP-S1b-E7-H6 (VHH)
VHH: QVQLVESGGGLVQPGGSLRLSCAASGGEFSDNGLHWFRQAPGKQREFVATASSDGSTQYRDSVKGRFTISRDNAKNTVYLQMNSLKPEDTAVYYCTALLMSSAGEYDVWGQGTQVTVSS
notes: Form: Monomer
In the case of B16, the “infectivity %” value in assay [1] stood at 85.7%.

B17: PP880 MBP-R5a-B5-H6 (VHH)
VHH: QVQLVESGGGLVQPGGSLRLSCAASGDDFIENAISWYRQAPGKGREWVAAVTLGGHSNYADSVKGRFTISRDNAKNTVYLQMNSLKPEDTAVYYCNYPVGIPAVAIDGRRSYGYWGQGTQVTVSS
notes: Form: Monomer
As for B17, the “infectivity %” value in assay [1] amounted to 58%.

B18: PP1114 MBP-5HVZ-PAPA-RN-30-H6 (VHH)
VHH: QVQLVESGGGLVQPGGSLRLSCAASGIPASYLNMHWFRQAPGKQREWVAGAGGTNSNYYQDSVKGRFTISRDNAKNTVYLQMNSLKPEDTAVYYCAALDGAESYDYVYPVWGQGTQVTVSS
notes: Form: Dimer
With B18, the EC50 in assay [2] turned out to be 1.64 nM; in assay [3], 18.9 nM; in assay [4], 6.12 nM. Further, the “infectivity %” value in assay [1] was determined as 76.3%.

B19: PP823 MBP-R5B-C3-H6 (VHH)
VHH: QVQLVESGGGLVQPGGSLRLSCAASGGISVANVMHWFRQAPGKEREGVAGLTSEGSRYYADSVKGRFTISRDNAKNTVYLQMNSLKPEDTAVYYCAAEPTGNTHEFEYWGQGTQVTVSS
Take B19: in assay [1], the “infectivity %” value is 65.5%.

B20: PP885 MBP-R5b-C5-H6 (VHH)
VHH: QVQLVESGGGLVQPGGSLRLSCAASGSPFKTQTVHWFRQAPGKGREWVASITSGSGTQYMDSVKGRFTISRDNAKNTVYLQMNSLKPEDTAVYYCAAANDGYGVDWGQGTQVTVSS
notes: Form: Monomer
On to B20, for which, in assay [1], the “infectivity %” value is 101%.

B21: PP904 MBP-5HVZ-R5b-C5-H6 (VHH)
VHH: B20 VHH
notes: Form: Dimer
For B21, the figures for the half-maximal effective concentration (EC50) in assay [2], in assay [3] and in assay [4] were 13 nM, 139 nM and 34.6 nM, respectively.

B22: PP886 MBP-S1a-C4-H6 (VHH)
VHH: QVQLVESGGGLVQPGGSLRLSCAASGSRDSINTAHWYRQAPGKAREWVASLDNSTTGSYADSVKGRFTISRDNAKNTVYLQMNSLKPEDTAVYYCAAVTGTPGGLGFYDYWGQGTQVTVSS
On to B22, for which, in assay [1], the “infectivity %” value worked out at 84.8%.

B23: PP905 MBP-5HVZ-S1a-C4-H6 (VHH)
VHH: B22 VHH
notes: Form: Dimer
Molecule B23 came in with an EC50 in assay [2] of 447 nM. For the same molecule, the “infectivity %” value in assay [1] came to 75.7%.

B24: PP806 MBP-R2B-E6-H6 (VHH)
VHH: QVQLVESGGGLVQPGGSLRLSCAASGGVTRGNAMAWYRQAPGKQREIVAAIDNGGSHAYGDSVKGRFTISRDNAKNTVYLQMNSLKPEDTAVYYCAVFPDHDSEQASIDRVYWGQGTQVTVSS
notes: Form: Monomer
For B24, in assay [1], the “infectivity %” value was determined as 86.5%.

B25: PP922 MBP-R5a-F5-H6 (VHH)
VHH: QVQLVESGGGLVQPGGSLRLSCAASGYHASILAMHWVRQAPGKEREWVASMTWSDMTQYSDSVKGRFTISRDNAKNTVYLQMNSLKPEDTAVYYCAATYVTRDRPWTHWGQGTQVTVSS
notes: Form: Monomer
With B25, the “infectivity %” value in assay [1] is 67.7%.

B26: PP788 (VHH, not shown: large carriers; small tags and cut ends)
VHH: QVQLVESGGGLVQPGGSLRLSCAASGSIESINAIHWFRQAPGKAREEVAAITENDVDYYADSVKGRFTISRDNAKNTVYLQMNSLKPEDTAVYYCASLSSGYQYVGFRYWGQGTQVTVSS
With B26, the 50% effective concentration (EC50) in assay [2] amounted to 5.88 nM; in assay [3] it was 27.6 nM; in assay [4] it was 16.8 nM.

B27: PP1177 MPB-scTRP-PAPA-R2a-F3-H6 (VHH)
VHH: QVQLVESGGGLVQPGGSLRLSCAASGSITSINWMHWFRQAPGKDREGVASISQTGRGSYADSVKGRFTISRDNAKNTVYLQMNSLKPEDTAVYYCAAASRTGTPYNYWGQGTQVTVSS
notes: Form: Trimer
For B27, the “infectivity %” value in assay [1] was 51.1%.
